The values that follow come from US20260042834A1, “ANTI-CORTICOTROPIN-RELEASING HORMONE ANTIBODIES AND POLYCYSTIC OVARY SYNDROME” (HBM ALPHA THERAPEUTICS, INC., priority 2022, published 2026).

The test system of experiment [1] is restraint-induced ACTH and corticosterone. The experiment can be described thus: Wildtype mice restraint-stress model (ACTH and corticosterone). The class given is in vivo, mouse. As to conditions: mAb 5 mg/kg.
Experiment [2] concerns the target T1, N-terminal region plus central region, central region only, central region plus C-terminal region of CRH (Homo sapiens, UniProt P06850).
T1 construct: N-terminal region plus the central region (CT biotin), the central region only (NT biotin or CT biotin)
The experiment can be described thus: ELISA determining the binding region of CRH. As to conditions: dash = no binding. On the procedure: Streptavidin (Thermo, Cat: 21125) was diluted in PBS to a concentration of 2 μg/ml. 100 μl of diluted streptavidin was added per well to ELISA microplates, and the plates were incubated overnight at 4° C. Plates were blocked with ELISA blocking solution (containing 2% w/v BSA, 0.05% (v/v) Tween-20, pH 7.4 PBS buffer) at 37° C. for 1 hour, and then incubated with 1 μg/mL N-terminal region plus the central region (CT biotin), the central region only (NT biotin or CT biotin), or the central region plus C-terminal region (NT biotin) of CRH for 1 hour at 37° C. Plates were then washed and incubated with diluted anti-CRH antibody (Ab) at 15 μg/ml (100 nM, 10 diluted, 8 points) for 1 hour at 37° C. Subsequently, plates were washed and incubated with HRP-conjugated goat anti-human IgG (H+L) antibody (Jackson, Cat: 109-035-088) at 37° C. for 1 hour. 100 μL of 3,3′,5,5′-tetramethylbenzidine (TMB) substrate (Biopanda, Cat: TMB-S-003) was added, and the plates were incubated at room temperature for 15 minutes. 100 μL of ELISA stopping solution (Solarbio, Cat #: C1058) was added to terminate the reaction, and the optical density at 450 nm (OD450 nm) was determined by an ELISA plate reader (Molecular Devices, Spectra max 384 plus).
On the technique in general: An ELISA detects its analyte on a solid surface through an enzyme-linked reagent.

Read-outs that look alike come from different tables or passages of the source. Some results are limits rather than exact numbers.

B1: PR302334-24: humanized variant of Series 9 mAb PR302334; VH SEQ ID NO: 275, VL SEQ ID NO: 328 (antibody, V domains shown)
VH: EVQLVESGGGLVKPGGSLRLSCAASGFTFSTYAMSWVRQAPGKGLEWVASIRSGGTTYYPDSVKGRFTISRDNAKNSLYLQMNSLRAEDTAVYYCTRGIDWGQGTTVTVSS
VL: DIVMTQSPDSLAVSLGERATINCKASQSVNNDVAWYQQKPGQPPRLLIYYASNRYTGVPDRFSGSGSGTDFTLTISSLQAEDLAVYFCQQDYSSWTFGGGTKVEIK
modifications: PR302334-16 VH, PR302334-24 VH, PR302334-25 VH; PR302334-10 VL, PR302334-24 VL, PR302334-26 VL, PR302334-4 VL
B1: the “efficacy in reducing plasma ACTH and corticosterone levels versus SSR125543A at 30 mg/kg” value in experiment [1] is “more efficacious”.

B2: PR302334-26: humanized variant of Series 9 mAb PR302334; VH SEQ ID NO: 277, VL SEQ ID NO: 328 (antibody, V domains shown)
VH: EVQLVESGGGLVQPGGSLRLSCAASGFTFSTYAMSWVRQAPGKGLEWVASIRSGGTTYYPDSVKGRFTISRDNSKNSLYLQMNSLRAEDTAVYYCTRGIDWGQGTTVTVSS
VL: DIVMTQSPDSLAVSLGERATINCKASQSVNNDVAWYQQKPGQPPRLLIYYASNRYTGVPDRFSGSGSGTDFTLTISSLQAEDLAVYFCQQDYSSWTFGGGTKVEIK
modifications: PR302334-18 VH, PR302334-26 VH, PR302334-27 VH; PR302334-10 VL, PR302334-24 VL, PR302334-26 VL, PR302334-4 VL
For orientation: EC50 means the concentration giving half of the maximal effect. With B2, the 50% effective concentration (EC50) in experiment [2] (central plus C-terminal region CRH peptide, NT-biotin (SEQ ID NO: 483), read-out: ELISA EC50 C-Ter-CRH (NT-Bion)) is above 100 nM; in experiment [2] (central region CRH peptide, CT-biotin (SEQ ID NO: 485), read-out: ELISA EC50 Central-CRH (CT-Bion)), above 100 nM; in experiment [2] (central region CRH peptide, NT-biotin (SEQ ID NO: 484), read-out: ELISA EC50 Central-CRH (NT-Bion)), above 100 nM.
